In article PMC10030467 (Nature Communications, 2023):
Substitutions are numbered along the chain they refer to. Names may count otherwise. “And” between values parts separate entries of the source, which are not always exact repeats. Equal entries are not always repeated.

Columns and labels:
[1] = molecular target: KAP1/TRIM28 (Homo sapiens) (UniProt Q13263); conditions: cited from earlier work
[2] = molecular target: the molecule itself; test: AUC + SEC-MALS; deletion constructs of TRIM72 in solution; 20 mM Tris-HCl pH 8.0, 200 mM NaCl, 0.3 mM TCEP
[3] = molecular target: the molecule itself; test: SEC-MALS; point mutants, 100 μL at 1 mg/mL; Superdex 200 increase, 20 mM Tris-HCl pH 8.0, 200 mM NaCl, 0.3 mM TCEP
[4] = molecular target: the molecule itself; test: cross-linking; disulfide bonds by oxidation: about 20 μM protein with 0-0.3% H2O2, 4 °C, 30 min, 20 mM Tris-HCl pH 8.0, 200 mM NaCl, 0.3 mM TCEP; non-reducing PAGE
[5] = molecular target: the molecule itself; test: AUC; sedimentation velocity, increasing protein concentration (1, 2, 10, 20, 50 μM); 20 mM Tris-HCl pH 8.0, 200 mM NaCl, 0.3 mM TCEP, 20 °C; SEDPHAT self-association; dimers to tetramer (and hexamer)
[6] = molecular target: the molecule itself; test: AUC; sedimentation velocity, lower protein concentrations of the series 1-50 μM; 20 mM Tris-HCl pH 8.0, 200 mM NaCl, 0.3 mM TCEP, 20 °C; monomers to dimer

KAP1/TRIM28 (from UniProt Q13263)
Kd [1]: 10 µM

B1: TRIM72^ΔSPRY (2-287) (domain or fragment, human, UniProt Q6ZMU5-1 2-287, looked up)
chain: SAAPGLLHQELSCPLCLQLFDAPVTAECGHSFCRACLGRVAGEPAADGTVLCPCCQAPTRPQALSTNLQLARLVEGLAQVPQGHCEEHLDPLSIYCEQDRALVCGVCASLGSHRGHRLLPAAEAHARLKTQLPQQKLQLQEACMRKEKSVAVLEHQLVEVEETVRQFRGAVGEQLGKMRVFLAALEGSLDREAERVRGEAGVALRRELGSLNSYLEQLRQMEKVLEEVADKPQTEFLMKYCLVTSRLQKILAESPPPARLDIQLPIISDDFKFQVWRKMFRALMPA
notes: TRIM72, human, residues 2-287 (RING, B-box, coiled-coil); source: E. coli Rosetta (DE3), purified; not shown: His-Sumo, N-terminal, cleaved
stoichiometry N [2]: 2

B2: TRIM72 W277A (natural protein, human, UniProt Q6ZMU5-1 2-477, looked up)
chain: SAAPGLLHQELSCPLCLQLFDAPVTAECGHSFCRACLGRVAGEPAADGTVLCPCCQAPTRPQALSTNLQLARLVEGLAQVPQGHCEEHLDPLSIYCEQDRALVCGVCASLGSHRGHRLLPAAEAHARLKTQLPQQKLQLQEACMRKEKSVAVLEHQLVEVEETVRQFRGAVGEQLGKMRVFLAALEGSLDREAERVRGEAGVALRRELGSLNSYLEQLRQMEKVLEEVADKPQTEFLMKYCLVTSRLQKILAESPPPARLDIQLPIISDDFKFQVARKMFRALMPALEELTFDPSSAHPSLVVSSSGRRVECSEQKAPPAGEDPRQFDKAVAVVAHQQLSEGEHYWEVDVGDKPRWALGVIAAEAPRRGRLHAVPSQGLWLLGLREGKILEAHVEAKEPRALRSPERRPTRIGLYLSFGDGVLSFYDASDADALVPLFAFHERLPRPVYPFFDVCWHDKGKNAQPLLLVGPEGAEA
notes: TRIM72, human, residues 2-477, point mutant; primers are in Supplementary Data 3; source: E. coli Rosetta (DE3), purified; not shown: His-Sumo, N-terminal, cleaved
stoichiometry N [3]: 2

B3: TRIM72 R169E (natural protein, human, UniProt Q6ZMU5-1 2-477, looked up)
chain: B2 chain with R168E, A276W
notes: TRIM72, human, residues 2-477, point mutant; source: E. coli Rosetta (DE3), purified; not shown: His-Sumo, N-terminal, cleaved
stoichiometry N [3]: 2

B4: TRIM72 R198A (natural protein, human, UniProt Q6ZMU5-1 2-477, looked up)
chain: B2 chain with R197A, A276W
notes: as for B3
stoichiometry N [3]: 2

B5: TRIM72 R220E (natural protein, human, UniProt Q6ZMU5-1 2-477, looked up)
chain: B2 chain with R219E, A276W
notes: as for B3
stoichiometry N [3]: 2

B6: TRIM72 R198E (natural protein, human, UniProt Q6ZMU5-1 2-477, looked up)
chain: B2 chain with R197E, A276W
notes: as for B3
stoichiometry N [3]: 2

B7: TRIM72 C242S (natural protein, human, UniProt Q6ZMU5-1 2-477, looked up)
chain: B2 chain with C241S, A276W
notes: as for B3
binding result [4]: binds

B8: TRIM72 R220A (natural protein, human, UniProt Q6ZMU5-1 2-477, looked up)
chain: B2 chain with R219A, A276W
notes: as for B3
stoichiometry N [3]: 2

B9: TRIM72 R180E (natural protein, human, UniProt Q6ZMU5-1 2-477, looked up)
chain: B2 chain with R179E, A276W
notes: as for B3
stoichiometry N [3]: 2

B10: TRIM72 I95A (natural protein, human, UniProt Q6ZMU5-1 2-477, looked up)
chain: B2 chain with I94A, A276W
notes: TRIM72, human, residues 2-477, point mutant in the B-box; also called I95A mutant; source: E. coli Rosetta (DE3), purified; not shown: His-Sumo, N-terminal, cleaved
Kd [5]: ~2200 µM

B11: TRIM72 W277E (natural protein, human, UniProt Q6ZMU5-1 2-477, looked up)
chain: B2 chain with A276E
notes: as for B3
stoichiometry N [3]: 2

B12: TRIM72 R180A (natural protein, human, UniProt Q6ZMU5-1 2-477, looked up)
chain: B2 chain with R179A, A276W
notes: as for B3
stoichiometry N [3]: 2

B13: TRIM72 F272A (natural protein, human, UniProt Q6ZMU5-1 2-477, looked up)
chain: B2 chain with F271A, A276W
notes: as for B3
stoichiometry N [3]: 2

B14: full-length human TRIM72 protein (2-477) (natural protein, UniProt Q6ZMU5-1 2-477, looked up)
chain: B2 chain with A276W
notes: TRIM72 (MG53), human, residues 2-477; open reading frame of GenBank NM_001008274.4; A dimer in solution at low concentration; the RING domain is not seen in the crystal structure although the full-length protein was crystallised; also called MG53; Tripartite Motif Protein 72; source: E. coli Rosetta (DE3), purified (nickel column, Source Q, Superdex 200 increase); not shown: His-Sumo, N-terminal, …
stoichiometry N [6]: 2 | Kd [5]: ~780 µM | stoichiometry N [5]: 4 and 6

B15: TRIM72 C144S (natural protein, human, UniProt Q6ZMU5-1 2-477, looked up)
chain: B2 chain with C143S, A276W
notes: as for B3
binding result [4]: binds

B16: TRIM72 M179A (natural protein, human, UniProt Q6ZMU5-1 2-477, looked up)
chain: B2 chain with M178A, A276W
notes: as for B3
stoichiometry N [3]: 2

B17: TRIM72 R169A (natural protein, human, UniProt Q6ZMU5-1 2-477, looked up)
chain: B2 chain with R168A, A276W
notes: as for B3
stoichiometry N [3]: 2

B18: TRIM72 M179E (natural protein, human, UniProt Q6ZMU5-1 2-477, looked up)
chain: B2 chain with M178E, A276W
notes: as for B3
stoichiometry N [3]: 2

B19: TRIM72^ΔRING-B-box (122-477) (domain or fragment, human, UniProt Q6ZMU5-1 122-477, looked up)
chain: AAEAHARLKTQLPQQKLQLQEACMRKEKSVAVLEHQLVEVEETVRQFRGAVGEQLGKMRVFLAALEGSLDREAERVRGEAGVALRRELGSLNSYLEQLRQMEKVLEEVADKPQTEFLMKYCLVTSRLQKILAESPPPARLDIQLPIISDDFKFQVWRKMFRALMPALEELTFDPSSAHPSLVVSSSGRRVECSEQKAPPAGEDPRQFDKAVAVVAHQQLSEGEHYWEVDVGDKPRWALGVIAAEAPRRGRLHAVPSQGLWLLGLREGKILEAHVEAKEPRALRSPERRPTRIGLYLSFGDGVLSFYDASDADALVPLFAFHERLPRPVYPFFDVCWHDKGKNAQPLLLVGPEGAEA
notes: TRIM72, human, residues 122-477 (coiled-coil and SPRY); also called CC-SPRY; source: E. coli Rosetta (DE3), purified; not shown: His-Sumo, N-terminal, cleaved
stoichiometry N [2]: 2

B20: TRIM72^ΔRING (84-477) (domain or fragment, human, UniProt Q6ZMU5-1 84-477, looked up)
chain: GHCEEHLDPLSIYCEQDRALVCGVCASLGSHRGHRLLPAAEAHARLKTQLPQQKLQLQEACMRKEKSVAVLEHQLVEVEETVRQFRGAVGEQLGKMRVFLAALEGSLDREAERVRGEAGVALRRELGSLNSYLEQLRQMEKVLEEVADKPQTEFLMKYCLVTSRLQKILAESPPPARLDIQLPIISDDFKFQVWRKMFRALMPALEELTFDPSSAHPSLVVSSSGRRVECSEQKAPPAGEDPRQFDKAVAVVAHQQLSEGEHYWEVDVGDKPRWALGVIAAEAPRRGRLHAVPSQGLWLLGLREGKILEAHVEAKEPRALRSPERRPTRIGLYLSFGDGVLSFYDASDADALVPLFAFHERLPRPVYPFFDVCWHDKGKNAQPLLLVGPEGAEA
notes: TRIM72, human, residues 84-477 (B-box, coiled-coil, SPRY); also called RING deletion; source: E. coli Rosetta (DE3), purified; not shown: His-Sumo, N-terminal, cleaved
stoichiometry N [2]: 2
